In patent US20140348838A1 (AbbVie / Abbott, published 2014):
Where a chain is given by its changes, count along the chain named.

Key:
human IL-1α [1] = molecular target: T1, human IL-1α (human, UniProt P01583 113-271, biotinylated in the ELISA (site not stated)); test: cell-based or functional assay
T1 sequence: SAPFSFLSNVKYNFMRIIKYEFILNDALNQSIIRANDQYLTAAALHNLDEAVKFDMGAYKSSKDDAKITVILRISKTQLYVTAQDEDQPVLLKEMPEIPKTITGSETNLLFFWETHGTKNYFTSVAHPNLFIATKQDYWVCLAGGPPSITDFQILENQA

cynomolgus IL-1α [2] = molecular target: T2, cynomolgus IL-1α (cynomolgus, UniProt P79340 113-271); test: cell-based or functional assay
T2 sequence (looked up): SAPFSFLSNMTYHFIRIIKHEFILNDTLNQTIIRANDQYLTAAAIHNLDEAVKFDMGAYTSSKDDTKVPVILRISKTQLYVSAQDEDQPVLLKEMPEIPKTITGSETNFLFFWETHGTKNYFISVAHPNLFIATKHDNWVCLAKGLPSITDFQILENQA

human IL-1α [3] = molecular target: T1, human IL-1α; test: SPR (Biacore), DVD-Ig captured, antigen in solution
cynomolgus IL-1α [4] = molecular target: T2, cynomolgus IL-1α; test: as above
human IL-1α [5] = molecular target: T1, human IL-1α; test: ELISA: DVD-Ig captured on anti-human Fc, biotinylated antigen titrated
Procedure: (§1) To determine if the anti-IL-1β mAbs bind to human IL-1β, ELISA plates (Nunc, MaxiSorp, Rochester, N.Y.) were incubated overnight at 4° C. with anti-human Fc antibody diluted in Pierce Coat buffer at 2 μg/ml (Jackson Immunoresearch, West Grove, Pa.). Plates were washed five times in washing buffer (PBS containing 0.05% Tween 20), and blocked for 1 hour at 25° C. with 200 μl per well superblock blocking buffer (Thermo scientific, No. 37515). Blocking buffer was removed by tapping plates, and 2 μg/ml of each antibody in PBS containing 10% Superblock, 0.5% Tween-20 was added to the wells at 100 μl/well and incubated at 25° C. for 1 hour. The wells were washed five times in 1×PBST, and 1 μg/ml biotinylated antigen was titrated at 1:6 serial dilutions (for a range of μg to pg in PBS containing 10% Superblock, 0.05% Tween 20). Each dilution of antigen was then added to the plates and incubated for 1 hour at 25° C. […] The wells were washed five times in 1×PBST, and 100 μl of ULTRA-TMB ELISA (Pierce, Rockford, Ill.) were added per well. Following color development the reaction was stopped with 1N HCL and absorbance at 450 nm was measured.
(§2) IL-1β and IL-1α binding by IL-1β/α DVD-Ig binding proteins was assessed by ELISA (assay described above, Example 2.1).

human IL-1α [6] = molecular target: T1, human IL-1α; test: Biacore (SPR), sequential injections on captured DVD-Ig: IL-1α as 2nd injection, after IL-1β
cynomolgus IL-1β [7] = molecular target: T3, cynomolgus IL-1β (cynomolgus, UniProt P79182 117-268); test: cell-based or functional assay
T3 sequence (looked up): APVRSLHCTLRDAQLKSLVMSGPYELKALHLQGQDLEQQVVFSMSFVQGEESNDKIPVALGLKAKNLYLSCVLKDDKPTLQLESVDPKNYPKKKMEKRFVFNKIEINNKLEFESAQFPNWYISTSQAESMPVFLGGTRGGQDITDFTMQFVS

human IL-1β [8] = molecular target: T4, human IL-1β (human, UniProt P01584 117-269, biotinylated in the ELISA (site not stated)); test: cell-based or functional assay
human IL-1β [9] = molecular target: T4, human IL-1β; test: SPR (Biacore), DVD-Ig captured, antigen in solution
cynomolgus IL-1β [10] = molecular target: T3, cynomolgus IL-1β; test: as above
human IL-1β [11] = molecular target: T4, human IL-1β; test: ELISA: DVD-Ig captured on anti-human Fc, biotinylated antigen titrated
Procedure: as §1, §2

human IL-1β [12] = molecular target: T4, human IL-1β; test: ELISA: antibody captured on anti-human Fc, biotinylated antigen titrated
Procedure: as §1

B1: E26.13-LL-X3 DVD-Ig (bispecific antibody, human IgG1, kappa, L234A L235A)
heavy: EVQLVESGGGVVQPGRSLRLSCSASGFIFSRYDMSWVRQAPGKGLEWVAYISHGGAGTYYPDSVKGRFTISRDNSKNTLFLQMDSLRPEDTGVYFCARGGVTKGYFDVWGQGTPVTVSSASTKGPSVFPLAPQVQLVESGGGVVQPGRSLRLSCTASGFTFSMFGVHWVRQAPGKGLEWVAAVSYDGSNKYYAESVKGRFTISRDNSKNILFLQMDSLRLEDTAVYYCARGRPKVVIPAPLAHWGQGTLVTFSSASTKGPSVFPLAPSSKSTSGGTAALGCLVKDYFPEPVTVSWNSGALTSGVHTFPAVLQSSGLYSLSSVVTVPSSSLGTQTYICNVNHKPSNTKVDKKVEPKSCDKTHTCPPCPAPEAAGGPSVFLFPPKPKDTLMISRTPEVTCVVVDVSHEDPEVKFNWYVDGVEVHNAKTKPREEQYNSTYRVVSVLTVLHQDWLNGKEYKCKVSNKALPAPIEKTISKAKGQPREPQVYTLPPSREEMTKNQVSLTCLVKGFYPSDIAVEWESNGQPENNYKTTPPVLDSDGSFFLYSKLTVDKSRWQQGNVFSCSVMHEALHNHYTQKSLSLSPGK
light: DIQMTQSPSSLSASVGDRVTITCRASGNIHNYLTWYQQTPGKAPKLLIYNAKTLADGVPSRFSGSGSGTDYTFTISSLQPEDIATYYCQHFWSIPYTFGQGTKLQITRTVAAPSVFIFPPDIQMTQSPSSVSASVGDRVTITCRASQGISSWLAWYQQKPGKAPKLLIYEASNLETGVPSRFSGSGSGSDFTLTISSLQPEDFATYYCQQTSSFLLSFGGGTKVEHKRTVAAPSVFIFPPSDEQLKSGTASVVCLLNNFYPREAKVQWKVDNALQSGNSQESVTEQDSKDSTYSLSSTLTLSKADYEKHKVYACEVTHQGLSSPVTKSFNRGEC
notes: Dual variable domain immunoglobulin
Potency (pM): neutralization of IL-1-induced hIL-8 in MRC5 cells (human IL-1α [1]): 10.2 pM | Potency (pM): neutralization of IL-1-induced hIL-8 in MRC5 cells (cynomolgus IL-1α [2]): 1050 pM | Kd (human IL-1α [3]): 6.15 pM | koff (human IL-1α [3]): 3.9e-06 s⁻¹ | kon (human IL-1α [3]): 646000 M⁻¹ s⁻¹ | Kd (cynomolgus IL-1α [4]): 3240 pM | koff (cynomolgus IL-1α [4]): 0.00105 s⁻¹ | kon (cynomolgus IL-1α [4]): 315000 M⁻¹ s⁻¹ | EC50 (human IL-1α [5]): 5.8 pM

B2: E26.13-SS-X3 DVD-Ig (bispecific antibody, human IgG1, kappa, L234A L235A)
heavy: not shown
light: DIQMTQSPSSLSASVGDRVTITCRASGNIHNYLTWYQQTPGKAPKLLIYNAKTLADGVPSRFSGSGSGTDYTFTISSLQPEDIATYYCQHFWSIPYTFGQGTKLQITRTVAAPDIQMTQSPSSVSASVGDRVTITCRASQGISSWLAWYQQKPGKAPKLLIYEASNLETGVPSRFSGSGSGSDFTLTISSLQPEDFATYYCQQTSSFLLSFGGGTKVEHKRTVAAPSVFIFPPSDEQLKSGTASVVCLLNNFYPREAKVQWKVDNALQSGNSQESVTEQDSKDSTYSLSSTLTLSKADYEKHKVYACEVTHQGLSSPVTKSFNRGEC
notes: as for B1
Kd (human IL-1α [3]): 7.61 pM | Kd (cynomolgus IL-1α [4]): 4110 pM | stoichiometry (human IL-1α [6]): 1.6

B3: E26.13-SS-X3 JM DVD-Ig (bispecific antibody, human IgG1, kappa, L234A L235A)
heavy: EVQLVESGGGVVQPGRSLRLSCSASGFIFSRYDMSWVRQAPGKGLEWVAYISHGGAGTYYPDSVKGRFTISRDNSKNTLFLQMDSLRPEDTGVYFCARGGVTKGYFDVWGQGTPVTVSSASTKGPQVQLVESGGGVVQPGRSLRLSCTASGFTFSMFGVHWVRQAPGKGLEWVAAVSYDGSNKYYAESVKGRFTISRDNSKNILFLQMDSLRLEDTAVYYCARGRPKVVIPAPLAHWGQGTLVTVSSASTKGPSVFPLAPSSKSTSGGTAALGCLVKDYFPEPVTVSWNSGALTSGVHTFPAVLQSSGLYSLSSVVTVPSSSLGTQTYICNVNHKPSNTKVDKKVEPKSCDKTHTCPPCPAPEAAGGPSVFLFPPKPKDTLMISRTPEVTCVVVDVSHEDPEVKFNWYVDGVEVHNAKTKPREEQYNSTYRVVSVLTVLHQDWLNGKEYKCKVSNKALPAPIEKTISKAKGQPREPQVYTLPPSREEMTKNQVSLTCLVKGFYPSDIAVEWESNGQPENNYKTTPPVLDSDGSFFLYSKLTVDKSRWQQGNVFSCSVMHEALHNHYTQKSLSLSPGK
light: B2 light with H219I
notes: Dual variable domain immunoglobulin; X3 is mutated in the J-region (X3 JM)
Potency (pM): neutralization of IL-1-induced hIL-8 in MRC5 cells (human IL-1α [1]): 26.5 pM | Potency (pM): neutralization of IL-1-induced hIL-8 in MRC5 cells (cynomolgus IL-1β [7]): 17.6 pM | Potency (pM): neutralization of IL-1-induced hIL-8 in MRC5 cells (cynomolgus IL-1α [2]): 1880 pM | EC50 (human IL-1α [5]): 4.3 pM

B4: E26.35-SS-X3 DVD-Ig (bispecific antibody, human IgG1, kappa, L234A L235A)
heavy: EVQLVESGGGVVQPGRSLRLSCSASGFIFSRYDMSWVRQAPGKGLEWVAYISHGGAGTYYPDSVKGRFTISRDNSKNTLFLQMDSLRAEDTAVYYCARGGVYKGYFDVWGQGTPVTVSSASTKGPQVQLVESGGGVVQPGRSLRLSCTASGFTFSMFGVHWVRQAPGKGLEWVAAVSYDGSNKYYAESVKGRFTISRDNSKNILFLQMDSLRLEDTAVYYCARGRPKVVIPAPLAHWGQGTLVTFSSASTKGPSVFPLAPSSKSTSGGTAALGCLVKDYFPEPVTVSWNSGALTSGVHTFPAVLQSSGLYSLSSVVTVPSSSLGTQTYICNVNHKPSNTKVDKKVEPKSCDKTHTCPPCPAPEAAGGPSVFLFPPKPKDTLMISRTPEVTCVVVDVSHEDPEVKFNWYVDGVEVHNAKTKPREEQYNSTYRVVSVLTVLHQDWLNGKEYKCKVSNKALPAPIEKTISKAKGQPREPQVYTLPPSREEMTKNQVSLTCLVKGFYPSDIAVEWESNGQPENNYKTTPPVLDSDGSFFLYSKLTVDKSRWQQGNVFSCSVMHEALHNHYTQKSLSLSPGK
light: B2 light
notes: as for B1
Potency (pM): neutralization of IL-1-induced hIL-8 in MRC5 cells (human IL-1β [8]): 1.8 pM | Potency (pM): neutralization of IL-1-induced hIL-8 in MRC5 cells (human IL-1α [1]): 25.8 pM | Potency (pM): neutralization of IL-1-induced hIL-8 in MRC5 cells (cynomolgus IL-1β [7]): 0.6 pM | Potency (pM): neutralization of IL-1-induced hIL-8 in MRC5 cells (cynomolgus IL-1α [2]): 474 pM | Kd (human IL-1β [9]): 5.03 pM | koff (human IL-1β [9]): 6.81e-06 s⁻¹ | kon (human IL-1β [9]): 1.32e+06 M⁻¹ s⁻¹ | Kd (human IL-1α [3]): 13.3 pM | koff (human IL-1α [3]): 2.14e-06 s⁻¹ | kon (human IL-1α [3]): 162000 M⁻¹ s⁻¹ | Kd (cynomolgus IL-1β [10]): 10.6 pM | koff (cynomolgus IL-1β [10]): 1.94e-05 s⁻¹ | kon (cynomolgus IL-1β [10]): 1.84e+06 M⁻¹ s⁻¹ | Kd (cynomolgus IL-1α [4]): 3270 pM | koff (cynomolgus IL-1α [4]): 0.000236 s⁻¹ | kon (cynomolgus IL-1α [4]): 72400 M⁻¹ s⁻¹ | EC50 (human IL-1β [11]): 8 pM | EC50 (human IL-1α [5]): 6.2 pM

B5: E26.35-SS-X3 JM DVD-Ig (bispecific antibody, human IgG1, kappa, L234A L235A)
heavy: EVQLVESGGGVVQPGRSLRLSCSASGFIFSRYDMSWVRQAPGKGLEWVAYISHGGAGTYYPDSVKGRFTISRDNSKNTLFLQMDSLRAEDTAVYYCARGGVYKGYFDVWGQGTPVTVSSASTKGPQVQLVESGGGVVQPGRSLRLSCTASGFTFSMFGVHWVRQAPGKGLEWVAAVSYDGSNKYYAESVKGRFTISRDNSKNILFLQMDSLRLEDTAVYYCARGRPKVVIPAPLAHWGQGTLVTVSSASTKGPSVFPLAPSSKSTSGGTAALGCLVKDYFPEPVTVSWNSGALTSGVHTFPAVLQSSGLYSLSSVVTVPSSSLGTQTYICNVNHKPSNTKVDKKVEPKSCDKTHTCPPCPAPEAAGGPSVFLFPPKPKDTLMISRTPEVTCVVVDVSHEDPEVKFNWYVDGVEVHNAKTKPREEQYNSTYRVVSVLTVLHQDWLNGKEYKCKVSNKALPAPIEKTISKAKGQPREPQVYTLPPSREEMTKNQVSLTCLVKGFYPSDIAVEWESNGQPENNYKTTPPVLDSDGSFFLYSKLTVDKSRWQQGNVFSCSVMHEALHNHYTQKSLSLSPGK
light: B2 light with H219I
notes: as for B3
EC50 (human IL-1β [11]): 6.3 pM | EC50 (human IL-1α [5]): 4 pM

B6: X3-LL-E26.13 DVD-Ig (bispecific antibody, human IgG1, kappa, L234A L235A)
heavy: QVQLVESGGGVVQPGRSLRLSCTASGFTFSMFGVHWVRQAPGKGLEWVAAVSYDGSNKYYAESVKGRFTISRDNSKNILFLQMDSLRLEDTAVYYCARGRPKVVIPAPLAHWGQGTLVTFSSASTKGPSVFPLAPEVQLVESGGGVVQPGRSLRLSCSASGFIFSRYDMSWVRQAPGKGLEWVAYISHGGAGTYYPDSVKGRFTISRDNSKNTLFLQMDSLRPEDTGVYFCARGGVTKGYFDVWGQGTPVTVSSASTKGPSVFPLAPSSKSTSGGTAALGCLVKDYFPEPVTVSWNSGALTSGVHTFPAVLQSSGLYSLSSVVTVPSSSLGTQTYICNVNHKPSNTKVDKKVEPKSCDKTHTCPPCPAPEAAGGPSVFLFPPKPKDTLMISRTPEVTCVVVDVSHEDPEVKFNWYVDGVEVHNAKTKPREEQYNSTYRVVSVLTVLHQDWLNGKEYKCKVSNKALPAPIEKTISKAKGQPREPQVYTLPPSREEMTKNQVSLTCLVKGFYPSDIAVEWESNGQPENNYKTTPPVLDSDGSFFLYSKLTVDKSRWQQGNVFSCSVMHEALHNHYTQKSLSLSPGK
light: DIQMTQSPSSVSASVGDRVTITCRASQGISSWLAWYQQKPGKAPKLLIYEASNLETGVPSRFSGSGSGSDFTLTISSLQPEDFATYYCQQTSSFLLSFGGGTKVEHKRTVAAPSVFIFPPDIQMTQSPSSLSASVGDRVTITCRASGNIHNYLTWYQQTPGKAPKLLIYNAKTLADGVPSRFSGSGSGTDYTFTISSLQPEDIATYYCQHFWSIPYTFGQGTKLQITRTVAAPSVFIFPPSDEQLKSGTASVVCLLNNFYPREAKVQWKVDNALQSGNSQESVTEQDSKDSTYSLSSTLTLSKADYEKHKVYACEVTHQGLSSPVTKSFNRGEC
Potency (pM): neutralization of IL-1-induced hIL-8 in MRC5 cells (human IL-1β [8]): 1470 pM | Potency (pM): neutralization of IL-1-induced hIL-8 in MRC5 cells (human IL-1α [1]): 8.9 pM

B7: E26.11 (antibody, V domains shown)
VH: EVQLVESGGGVVQPGRSLRLSCSASGFIFSRYDMSWVRQAPGKGLEWVAYISHGGAGTYYPDSVKGRFTISRDNSKNTLFLQMDSLRPEDTAVYYCARGGVYKGYFDVWGQGTPVTVSS
VL: DIQMTQSPSSLSASVGDRVTITCRASGNIHNYLTWYQQTPGKAPKLLIYNAKTLADGVPSRFSGSGSGTDYTFTISSLQPEDIATYYCQHFWSIPYTFGQGTKLQIT
EC50 (human IL-1β [12]): 14 pM

B8: X3-SS-E26.13 DVD-Ig (bispecific antibody, human IgG1, kappa, L234A L235A)
heavy: not shown
light: DIQMTQSPSSVSASVGDRVTITCRASQGISSWLAWYQQKPGKAPKLLIYEASNLETGVPSRFSGSGSGSDFTLTISSLQPEDFATYYCQQTSSFLLSFGGGTKVEHKRTVAAPDIQMTQSPSSLSASVGDRVTITCRASGNIHNYLTWYQQTPGKAPKLLIYNAKTLADGVPSRFSGSGSGTDYTFTISSLQPEDIATYYCQHFWSIPYTFGQGTKLQITRTVAAPSVFIFPPSDEQLKSGTASVVCLLNNFYPREAKVQWKVDNALQSGNSQESVTEQDSKDSTYSLSSTLTLSKADYEKHKVYACEVTHQGLSSPVTKSFNRGEC
notes: as for B1
EC50 (human IL-1α [5]): 4.5 pM
